In the nanobody polyreactivity screen of Harvey et al. (2022):

Test: yeast display, Sf9 membrane polyspecificity reagent, FACS + sequencing; frameworks hold sequencing errors
How it was run: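 Polyreactivity labels are assigned by the sorting gate from which each nanobody was recovered. The gates were low and high (top ~1%), set on anti-HA fluorescence for expression and streptavidin fluorescence for reagent binding. Before sorting, galactose-induced (36–48 hours) yeast display cells were stained for 1 hour at 4 °C with 10% biotinylated, detergent-solubilized Sf9 membrane reagent.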

Sequence | polyreactivity (PSR sort gate)
QVQLVESGGGLVQAGGSLRLSCSASGTTFRGYAMGWYRQAPGKEREVVAAISNNGVTTYYADSVKGRFTISRDNAKNTVYLQMNSLKPEDAAVYYCAAGLYHGFAASDEIRGDYWGLGTQVTVSS | low polyreactivity
QFQLEESGGGLVQAGGSLRLSCADSGIIFFFYAMGWYRQAPGKERELVAAISDDGVSTDYADSVKGRFTISRDNAKNTVYLQMNSLKPEDTAVYYCAAKTERVYPWFSFGYWGQGTQVTVSS | low polyreactivity
QVQLVESGGGLVQAGGRLRLSCAASGRTFYYNGMGWYRQAPGKERELVAAITSGGTTSYADSVKGRFTISRDNAKNTVYLQMNSLKPEDTAVYYCNADYWAVNYDYWGQGTQVTVSS | low polyreactivity
QVQLEESGGGLVQAGGSLRLSCAASGRTLDYYAMGWYRQAPGKERELVASITSGGSTNYADSVKGRFTISRDNAKNTVYLQMNSLKPEDTAVYYCAADSAFYRDVKSNYWGQGTQVTVSS | low polyreactivity
HVQLVESGGGLVQAGGSLRLSCAASGRTLGSYAIGWYRQAPGKARELVAAISGGSTNYADSVKGRFTISRDNAKNTVYLQMNRLKPEDTAVYYCAADPYGYLYDSWGQGTQVTVSS | low polyreactivity
QVQLVESGGGLVQAGCSLRLSCAASGFTFDQYAMGWYRQAPGKEREFVAGNSYGRGRTYYADSVKGRFTISRDNAKNNFYLQMNSVKPEVTAVYYCAADGVYRYNYPYLYTYDYWGQGTQVTVSS | low polyreactivity
QVQLVESGGGLVQAGGSLRLSCAPSGRTFWSYAMGWYRQAPGKERELVAAISLDDGTTYYADSVKGRFTISRDNAKNTVYLQMNSLKPEDTAVYDCAAEREQGDDGYGPDYGYWGQGTQVTVSS | high polyreactivity
QVQLVESGGGLVQAGGSLRLSCAASGSTFNRNAMGWYRQAPGKERELVAAISWRGDSTSYADSVKGRFTISRDNAKNTVYLQMNSLKPEDTAVSYCAADYYYGQGQPDEDNYWGQGTQVTVSS | low polyreactivity
QVQLVESGGGLVQAGGSLRLSCAASGRTFRTNAMGWYRQEPGKERELVASITWRGDSTYYADSVKGRFTISRDNAKNTVYLQMNRLKPEDTAVYYCAAGGFYWGYLWGRYDYWGQGTQVTVSS | high polyreactivity
QVQLVESGGGLVQAGGSLRLSCAASGSTFYTYTMGWYRQAPGKERALVAAISSSGGDTYYADSVKGRFTISRDNAKNTVYLQMNSLKPEDTAVYYCAALGAFPSLEFDYWGQGTQVTVSS | low polyreactivity
QVQLQESGGGLVQAGGSLRLSSAASGTISVHATMGWYRQAPGKERELVAGITDGANTYYADSVKGRFTISRDNSKNTEYLQMNSLKPEDTAVYYCAAYYGTVVHFTYWGQGTQVTVSS | low polyreactivity
QVQLVESGGRLVQAGGSLRLSCAASGFIFVGNDMAWYRQAPGKVRELVAAISSGGTTNYADSVKGRFTNSRDNAKNTVYLQMNSLKPEDTAVYDCAADYDYRQGYDSVHLDYWGQGTQVTVSS | low polyreactivity
QFQLVESGGGLVQAGGSLRVSSAASGITLPYYAMGWYRQAPGKDRELVAGISSRGGSTYYADSVKGRFTISRDNAKNTVYLQMNSLKPEDTAVYYCAAKVASTRLGPAYGYWGQGTQVTVSS | high polyreactivity
QVQLVESGGGLVQAGGSLRLSCAASGSIFEPNAMGWYRQAPGKERELVASITSGGTTYADSVKGRFTISRDNAKNTVYLQMNSLKPEDTAVYYCNARVKAFFDPSQYLYGHDYWGQGTQVTVSS | low polyreactivity
QVQLLESGGGLVQAGGSLRLSCAPSGRTFVFNGRGWYRPATAKERELVAAINRSGGSTYYAVSVKGRFTISRDNGKNTVYLQMNSLKPEDTAVYYCLIQHNGLGYWGQGTQVTVSS | low polyreactivity
QVQRVESGGGLVQAGGSLRLSCAASGSIFSVYAMGWYRQAPGKERELVAAITSSGGSTYYADSVKGRFTISRDNAKNTVNFQMKSLKPEDTAVYYCAADKYLRRRSWYRYGYWGQGTQVTVSS | high polyreactivity
QVQLVESGGGLVQAGGSLRLSCAASGSNFINNAMGWYRQAPGKERELVAAISYSGGRTYYADSVKGRFTISRDNAKNTVYLQMNSLKPEDTAVYYCAADRSHRMNWGQGTQVTVSS | high polyreactivity
QVQLVESGGGLVQAGGSLRLSCAASGYILDVYAMGWYRQAHGKERELVAVITWRTDSTYYADSVKGRFTISRDNAKNTVYLQMNSLKPEDTAVYYCAKVLRLSKYRYYYWGQGTQVTVSS | high polyreactivity
LVQLVESGGGLVQAGGSLRLICAAYGSIFALNSLGWYSQAPGKERELVAAISRGDGTKYEHTVKGRFTISRDNAKTTVYLQMTSLKPEYTAVYYCAKDYWFRWRWPYNHWGLGTQVTVSS | low polyreactivity
QVQLVESGGGLDQAGGSLRLSCAASGRTFAHNAMGWYRQAPGKERELVAAITWSGGTTYYADSVKGRFTISRDNAKNTVYLQMNSLKPEDTAVYYCNTYSYLADPKYDYWGQGTQVTVSS | low polyreactivity
QVQLVESGGGLVQAGGSLRLSCAASGSTYLYAIRWYRQAPGKERELVAAISWSGGSTYYADSVKGRFTISRDNAKNTVYLQMNSLKPEDTAVYYCNAYTYPFDWGQGTQVTVSS | high polyreactivity
QVQLVESGGGLVQAGGSLRLICAASGFTLTRNAMGWYRQAPGKESELVAAISWSGGTTYYADSVKGRFTISRDNAKNTVYLQMNSLKPEDTAFYYCNTASWRDQYYYWGQVTQVTVSS | high polyreactivity
